The target in this series is human serum albumin (HSA) (Homo sapiens, UniProt P02768 25-609). As to the kind of experiment: alternating current voltammetry (electrochemical aptasensor); gold nanopit array with 6-MCH; HSA up to 600 uM; LOD 0.08 nM (not a Kd); 10 mM Tris, 150 mM NaCl, 5 mM KCl, pH 7.4, room temperature; 30 min HSA incubation; aptamer immobilized in 10 mM Tris, 1.5 M NaCl, 1 mM MgCl2, pH 7.4. To be noted: label: 5' ferrocene.
human serum albumin (HSA), sequence (P02768 25-609): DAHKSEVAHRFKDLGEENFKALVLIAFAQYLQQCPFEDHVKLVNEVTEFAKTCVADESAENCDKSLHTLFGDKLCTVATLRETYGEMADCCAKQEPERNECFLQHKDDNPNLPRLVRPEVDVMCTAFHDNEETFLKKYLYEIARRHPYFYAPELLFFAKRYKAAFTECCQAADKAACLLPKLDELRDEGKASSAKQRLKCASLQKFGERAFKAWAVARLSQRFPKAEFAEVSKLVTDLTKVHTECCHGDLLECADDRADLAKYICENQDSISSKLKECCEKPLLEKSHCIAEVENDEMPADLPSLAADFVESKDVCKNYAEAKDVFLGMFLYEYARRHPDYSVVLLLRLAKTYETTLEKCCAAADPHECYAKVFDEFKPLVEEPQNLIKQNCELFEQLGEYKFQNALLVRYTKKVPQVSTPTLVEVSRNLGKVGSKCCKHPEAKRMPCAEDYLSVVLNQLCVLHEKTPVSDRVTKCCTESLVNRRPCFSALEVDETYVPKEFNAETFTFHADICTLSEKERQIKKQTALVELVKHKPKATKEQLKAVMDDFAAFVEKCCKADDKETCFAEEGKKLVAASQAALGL

B1: HSA aptamer (ssDNA)
DNA: GTCTCAGCTACCTTACCGTATGTGGCCCAAAGCGTCTGGATGGCTATGAA
modifications: 3' (CH2)6-SH thiol (disulfide reduced with TCEP), immobilized on gold
With B1, the binding result is on record as “binds”.

These data come from publication PMC10458775, “A Combined Plasmonic and Electrochemical Aptasensor Based on Gold Nanopit Arrays for the Detection of Human Serum Albumin”.
